For 1 substance, p53 transcription activity (luciferase reporter), UMSCC47/CH1 cells, p53 transcription activity (luciferase reporter), UPCI:SCC090/CH1 cells and p53 transcription activity (luciferase reporter), UMSCC74A/CH1 compared to UMSCC74A/empty cells results are on record in patent US20140220159A1.

Assay [1] concerns the target HPV16 E6 (human papillomavirus type 16 (HPV16)) (UniProt P03126). The assay is described as follows: cell-based or functional assay.
In a further assay the target is MDM2 (UniProt Q00987). Put plainly: cell-based or functional assay.
Chain of MDM2 (Q00987 whole entry): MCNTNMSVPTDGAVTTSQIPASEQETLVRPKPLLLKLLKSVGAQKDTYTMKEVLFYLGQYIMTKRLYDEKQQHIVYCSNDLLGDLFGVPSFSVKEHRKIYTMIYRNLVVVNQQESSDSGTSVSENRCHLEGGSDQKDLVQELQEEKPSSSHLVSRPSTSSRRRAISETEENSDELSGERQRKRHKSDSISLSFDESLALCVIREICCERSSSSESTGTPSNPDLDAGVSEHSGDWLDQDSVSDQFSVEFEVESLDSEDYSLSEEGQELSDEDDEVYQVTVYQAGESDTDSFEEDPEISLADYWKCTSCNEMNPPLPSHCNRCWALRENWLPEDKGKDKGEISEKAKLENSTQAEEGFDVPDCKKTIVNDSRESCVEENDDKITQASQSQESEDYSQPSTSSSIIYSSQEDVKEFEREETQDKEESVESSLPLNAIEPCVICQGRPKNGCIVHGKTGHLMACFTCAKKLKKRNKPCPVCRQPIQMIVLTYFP

Chain of exogenous CH1 domain of p300 (pcDNA3.1/CH1) (Q09472 whole entry, the tested form may be a part): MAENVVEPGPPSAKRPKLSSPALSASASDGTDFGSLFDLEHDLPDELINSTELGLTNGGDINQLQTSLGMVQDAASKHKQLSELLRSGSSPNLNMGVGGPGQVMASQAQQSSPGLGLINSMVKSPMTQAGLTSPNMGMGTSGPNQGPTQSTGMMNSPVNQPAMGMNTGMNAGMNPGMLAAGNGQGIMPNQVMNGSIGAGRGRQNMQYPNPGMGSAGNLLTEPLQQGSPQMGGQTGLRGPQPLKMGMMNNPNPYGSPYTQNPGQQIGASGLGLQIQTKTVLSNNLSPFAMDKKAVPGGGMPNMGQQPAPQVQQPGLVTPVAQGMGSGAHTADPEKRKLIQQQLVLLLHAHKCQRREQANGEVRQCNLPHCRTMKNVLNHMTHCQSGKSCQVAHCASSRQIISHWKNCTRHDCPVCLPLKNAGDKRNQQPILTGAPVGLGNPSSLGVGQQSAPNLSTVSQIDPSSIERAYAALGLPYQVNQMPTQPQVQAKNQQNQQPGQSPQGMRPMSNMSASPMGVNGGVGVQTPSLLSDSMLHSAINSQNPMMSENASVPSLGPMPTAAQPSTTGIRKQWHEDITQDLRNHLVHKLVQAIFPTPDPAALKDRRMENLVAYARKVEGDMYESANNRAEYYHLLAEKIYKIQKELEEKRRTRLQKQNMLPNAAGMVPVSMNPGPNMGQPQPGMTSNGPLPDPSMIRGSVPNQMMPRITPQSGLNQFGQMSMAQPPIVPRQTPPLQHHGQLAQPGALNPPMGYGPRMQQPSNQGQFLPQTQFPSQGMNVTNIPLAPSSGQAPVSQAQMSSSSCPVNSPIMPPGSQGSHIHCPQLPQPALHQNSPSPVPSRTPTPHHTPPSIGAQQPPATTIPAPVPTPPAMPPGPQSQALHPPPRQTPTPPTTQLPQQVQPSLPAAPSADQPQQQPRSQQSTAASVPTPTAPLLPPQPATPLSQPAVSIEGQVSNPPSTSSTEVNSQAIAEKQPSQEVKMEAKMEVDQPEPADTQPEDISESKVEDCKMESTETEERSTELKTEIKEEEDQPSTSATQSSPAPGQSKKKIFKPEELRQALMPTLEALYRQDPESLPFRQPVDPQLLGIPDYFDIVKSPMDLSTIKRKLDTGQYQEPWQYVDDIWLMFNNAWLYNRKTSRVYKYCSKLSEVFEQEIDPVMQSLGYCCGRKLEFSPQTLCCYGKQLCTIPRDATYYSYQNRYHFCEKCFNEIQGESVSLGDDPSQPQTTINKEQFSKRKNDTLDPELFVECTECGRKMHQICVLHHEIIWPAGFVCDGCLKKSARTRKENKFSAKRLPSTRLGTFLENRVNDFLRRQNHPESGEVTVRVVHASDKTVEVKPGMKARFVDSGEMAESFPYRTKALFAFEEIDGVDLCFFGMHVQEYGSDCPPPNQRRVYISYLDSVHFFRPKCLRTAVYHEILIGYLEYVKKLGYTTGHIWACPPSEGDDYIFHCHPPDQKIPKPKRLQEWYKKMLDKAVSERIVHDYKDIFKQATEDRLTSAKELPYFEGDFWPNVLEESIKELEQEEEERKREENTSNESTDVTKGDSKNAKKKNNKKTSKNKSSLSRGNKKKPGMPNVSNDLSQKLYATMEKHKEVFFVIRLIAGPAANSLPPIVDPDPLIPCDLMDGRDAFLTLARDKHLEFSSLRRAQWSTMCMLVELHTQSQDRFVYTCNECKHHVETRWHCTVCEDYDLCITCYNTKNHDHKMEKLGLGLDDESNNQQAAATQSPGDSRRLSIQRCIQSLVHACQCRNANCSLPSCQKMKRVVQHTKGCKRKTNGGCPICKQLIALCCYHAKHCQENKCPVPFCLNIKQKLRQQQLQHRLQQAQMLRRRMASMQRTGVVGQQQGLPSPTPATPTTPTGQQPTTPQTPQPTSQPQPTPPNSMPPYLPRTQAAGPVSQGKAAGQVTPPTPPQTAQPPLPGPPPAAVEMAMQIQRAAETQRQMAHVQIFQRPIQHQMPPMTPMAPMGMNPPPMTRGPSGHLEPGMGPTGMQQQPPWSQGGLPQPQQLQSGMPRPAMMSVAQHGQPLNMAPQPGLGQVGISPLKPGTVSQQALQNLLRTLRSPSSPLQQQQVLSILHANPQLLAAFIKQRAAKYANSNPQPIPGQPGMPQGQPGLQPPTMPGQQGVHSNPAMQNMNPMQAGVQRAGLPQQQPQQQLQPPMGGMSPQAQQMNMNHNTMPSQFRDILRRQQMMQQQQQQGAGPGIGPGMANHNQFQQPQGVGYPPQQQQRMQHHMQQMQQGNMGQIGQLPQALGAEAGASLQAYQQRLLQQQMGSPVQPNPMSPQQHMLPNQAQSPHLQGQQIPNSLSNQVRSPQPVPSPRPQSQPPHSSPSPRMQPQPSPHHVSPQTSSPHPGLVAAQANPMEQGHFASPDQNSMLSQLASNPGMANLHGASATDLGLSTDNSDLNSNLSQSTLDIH
Chain of HPV16 E6 (human papillomavirus type 16 (HPV16)) (P03126 whole entry): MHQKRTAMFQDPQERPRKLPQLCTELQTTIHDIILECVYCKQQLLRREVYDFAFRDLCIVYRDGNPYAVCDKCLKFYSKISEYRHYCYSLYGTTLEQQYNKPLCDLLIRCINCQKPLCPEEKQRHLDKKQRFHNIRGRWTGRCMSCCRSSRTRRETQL

In assay [1], “exogenous CH1 domain of p300 (pcDNA3.1/CH1) (from UniProt Q09472 332-417)” returned a p53 transcription activity (luciferase reporter), UMSCC47/CH1 cells of 85% and a p53 transcription activity (luciferase reporter), UPCI:SCC090/CH1 cells of 50%. The p53 transcription activity (luciferase reporter), UMSCC74A/CH1 compared to UMSCC74A/empty cells with MDM2 was 68%.
